Results published in patent publication US20080268015A1 (AFFINERGY, published 2008).
Primed or numbered codes have the meaning given here. Where no end group is shown, it is not given here. [ ]: non-standard residue; d: D form. PEG10′ = non-peptide PEG10 spacer

What follows are binders tested against BMP2 (Bone Morphogenetic Protein 2) (UniProt P12643 283-396) (assay: ELISA: composition (10 uM) pre-bound to DBM, serial dilutions of BMP-2, detected with anti-BMP-2 antibody).
BMP2 (Bone Morphogenetic Protein 2), sequence (P12643 283-396 limits assumed): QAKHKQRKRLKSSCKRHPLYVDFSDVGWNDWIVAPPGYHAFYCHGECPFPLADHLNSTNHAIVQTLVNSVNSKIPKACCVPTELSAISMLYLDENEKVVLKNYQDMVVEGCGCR
Description: A binding assay was performed using ELISA; and the resultant absorbance observed across the concentration range of pharmaceutically active agent yielded a binding curve and rough dissociation constant of the composition which were used to calculate an EC50. Appropriate controls, including absence of the composition, were included in the assay.
As a specific example, DBM was placed in a microtiter plate at a concentration of 3 mg equivalents per well, and then the wells and DBM were blocked with buffer containing 1% BSA for 1 hour at room temperature. The buffer containing 1% BSA was then aspirated from each well, and added to each of the wells was 100 μl of buffer containing 10 μM of the respective composition embodiments. The microtiter plates were incubated for 1 hour at room temperature on a plate shaker. The DBM was then allowed to settle, and the buffer was then aspirated from the wells. The DBM was washed three times with buffer-T, and then serial dilutions of BMP-2 were added to the wells in 100 μl of buffer. The microtiter plates were then incubated for 1 hour at room temperature on a plate shaker. The DBM, having composition bound thereto, was then allowed to settle, and then buffer was aspirated from the wells. The DBM-composition combination was washed three times with buffer-T. Commercial murine anti-BMP-2 antibody was diluted 1:1000 in buffer containing 1% BSA, and 100 μl was added per well. The plates were incubated for 30 minutes at room temperature on a plate shaker, and then the wash step was repeated. Commercial anti-mouse antibody labeled with alkaline phosphatase was diluted 1:1000 in buffer containing 1% BSA, and 100 μl was added per well. The plates were incubated for 30 minutes at room temperature on a plate shaker, and then the wash step was repeated. Added to each well was 200 μl of substrate pNPP, and the plates were incubated at room temperature on a plate shaker to develop the assay. 100 μl of solution was removed from each well and added to a respective well of a new microtiter plate which was then read on a spectrophotometer and the absorbance was recorded at 405 nm. An estimate of the relative affinity, binding specificity, EC50 of the composition for pharmaceutically active agent can be made by determining the concentration of peptide that provides one-half the maximal signal in the assay.
SWWGFWNGSAAPVWSRGSSESAGAWEAFSSLSGSRVGSSGK (also: biotin linked to C-terminal GSSGK linker, site not given here) was tested, and the EC50 was < 10 nM.
For SWWGFWNGSAAPVWSRGSSGAGAWEAFSSLSGSRVGSSGK (also: biotin linked to C-terminal GSSGK linker, site not given here), the EC50 was < 10 nM.
For SWWGFWNGSAAPVWSRGSSGAGALGFPLKGEVVEGWAGSSGK (also: biotin linked to C-terminal GSSGK linker, site not given here), the EC50 was < 10 nM.
With SFGSWWWGSGAASSRGSSGGGALGFPLKGEVVEGWAGSSGK (also: biotin linked to C-terminal GSSGK linker, site not given here) the EC50 was < 10 nM.
In the case of SFGSWWWGSGAASSRG[PEG10′]GGGAWEAFSSLSGSRVGSSGK (also: C-terminal amino linker biotinylated), the EC50 is reported as < 10 nM.
With SFGSWWWGSGAASSRG[PEG10′]AGAWEAFSSLSGSRVGSSGK (also: C-terminal amino linker biotinylated) the EC50 was < 10 nM.
